Laboratory results as given in paper PMC8937303.

Molecular target: pFGFR2_(Cyto) (UniProt P21802)
Experiment: MST

Chain of pFGFR2_(Cyto) (P21802 400-821): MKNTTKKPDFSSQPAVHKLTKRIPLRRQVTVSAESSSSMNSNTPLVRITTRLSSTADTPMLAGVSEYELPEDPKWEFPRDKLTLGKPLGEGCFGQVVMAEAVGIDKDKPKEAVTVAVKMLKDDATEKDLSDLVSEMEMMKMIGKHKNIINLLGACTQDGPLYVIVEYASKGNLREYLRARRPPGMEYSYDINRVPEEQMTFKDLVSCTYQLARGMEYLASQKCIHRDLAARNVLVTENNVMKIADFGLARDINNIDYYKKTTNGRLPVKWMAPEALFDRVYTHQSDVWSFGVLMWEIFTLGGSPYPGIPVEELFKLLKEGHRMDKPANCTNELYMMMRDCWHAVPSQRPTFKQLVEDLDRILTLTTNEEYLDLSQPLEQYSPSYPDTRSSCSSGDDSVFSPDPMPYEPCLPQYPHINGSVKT

Substance | Kd [µM]
SHP2_(2SH2) (from UniProt Q06124 1-221) (domain or fragment) | 25.1
PLCγ1_(2SH2) (from UniProt P19174 545-791) (domain or fragment) | 0.223
